According to publication PMC8062585, “Machine learning guided aptamer refinement and discovery”:

Target: T1, NGAL (UniProt P80188 21-198)
Assay: bead-based fluorescence, 4-concentration estimate; PBSMCT: DPBS with 2.5 mM MgCl2, 0.9 mM CaCl2, 0.01% Tween 20; room temperature, 1 h; bound NGAL detected with iFluor 647 anti-His antibody (6 nM)
Details: protein: commercial; tags: C-terminal His-tag

T1 sequence (P80188 21-198): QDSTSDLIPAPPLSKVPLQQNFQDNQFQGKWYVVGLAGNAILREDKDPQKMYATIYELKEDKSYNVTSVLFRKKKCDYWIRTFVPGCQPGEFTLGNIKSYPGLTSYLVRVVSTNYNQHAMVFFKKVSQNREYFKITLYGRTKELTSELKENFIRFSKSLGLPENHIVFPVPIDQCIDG

| Binder | Kd |
| --- | --- |
| CAAGAGGATTTGGTGGATAGTAAATCTTTGC (ssDNA, 5' biotin) [G13.3] | < 8 nM |
| ACGTTTTTGGTGGATAGCAAATGCCAGGGCCCTTTTTTG (ssDNA, 5' biotin) [G12.1] | < 16 nM |
| CAAGAGGATTTGGTGGATAGTAAATCTTTGCCTAT (ssDNA, 5' biotin) [G13.2] | < 16 nM |
| ACGTTTTTGGTGGATAGCAAATGCCAGGGCC (ssDNA, 5' biotin) [G12.3] | < 32 nM |
| GTTTTTGGTGGATAGCAAA (ssDNA, 5' biotin) [G12.6] | < 32 nM |
| ACGTTTTTGGTGGATAGCAAATGCCAGGGCCCTTT (ssDNA, 5' biotin) [G12.2] | < 32 nM |
| AGAGGATTTGGTGGATAGTAAAT (ssDNA, 5' biotin) [G13.7] | < 16 nM |
| TTTGGTGGATAGTAA (ssDNA, 5' biotin) [G13.12] | < 256 nM |
| CAAGAGGATTTGGTGGATAGTAAATCTTTGCCTATCCAG (ssDNA, 5' biotin) [G13.1] | < 16 nM |
| AAGAGGATTTGGTGGATAGTAAATCTT (ssDNA, 5' biotin) [G13.5] | < 8 nM |
| AGAGGATTTGGTGGATAGT (ssDNA, 5' biotin) [G13.11] | < 1020 nM |
| ACGTTTTTGGTGGATAGCAAATGCCAG (ssDNA, 5' biotin) [G12.4] | < 16 nM |
| GAGGATTTGGTGGATAGTAAATCTTTG (ssDNA, 5' biotin) [G13.4] | < 8 nM |

Same assay, conditions: protein: commercial; tags: C-terminal His-tag; hairpin (predicted)

| Binder | Kd |
| --- | --- |
| ACGTTTTTGGTGGATAGCAAATG (ssDNA, 5' biotin) [G12.5 (G12_23)] | < 16 nM |
| GAGGATTTGGTGGATAGTAAATC (ssDNA, 5' biotin) [G13.8 (G13_23)] | < 8 nM |

Target: T1, NGAL
Assay: bead-based fluorescence binding (flow cytometry); PBSMCT: DPBS with 2.5 mM MgCl2, 0.9 mM CaCl2, 0.01% Tween 20; room temperature, 1 h; bound NGAL detected with iFluor 647 anti-His antibody (6 nM)
Details: protein: commercial; tags: C-terminal His-tag; hairpin (predicted)

| Binder | Kd |
| --- | --- |
| ACGTTTTTGGTGGATAGCAAATG (ssDNA, 5' biotin) [G12.5 (G12_23)] | 11 nM |
| GAGGATTTGGTGGATAGTAAATC (ssDNA, 5' biotin) [G13.8 (G13_23)] | 1.5 nM |
